Measured values from patent publication US5316935A, “Subtilisin variants suitable for hydrolysis and synthesis in organic media” (California Institute of Technology, priority 1992, dated 1994).
Starred links: 1 amine or outer side, 2 acyl side, 3 side chain; linkers in the order of their positions; H or OH if unused. Residues, ends and D or L forms follow the SMILES beside them. *: point of attachment. pNA = O=[N+]([O-])c1ccc(N*)cc1; Suc = O=C(CCC(=O)[*:2])[*:1]

What was measured:
[1] = target: T1, Bacillus subtilis subtilisin E variant Q103R (Bacillus subtilis, UniProt P04189, A256V/Q209R); assay: Amidase activity: hydrolysis of p-nitroanilide peptide substrates; format: biochemical; details: 0.1M Tris-HCl, 10 mM CaCl2, pH 8, 37° C.
T1 construct: each contain 275 residues; made in house; host or cells: Bacillus subtilis DB428 (vector pKWC), secreted into the medium
T1 sequence (P04189 107-381 Q209R/A256V): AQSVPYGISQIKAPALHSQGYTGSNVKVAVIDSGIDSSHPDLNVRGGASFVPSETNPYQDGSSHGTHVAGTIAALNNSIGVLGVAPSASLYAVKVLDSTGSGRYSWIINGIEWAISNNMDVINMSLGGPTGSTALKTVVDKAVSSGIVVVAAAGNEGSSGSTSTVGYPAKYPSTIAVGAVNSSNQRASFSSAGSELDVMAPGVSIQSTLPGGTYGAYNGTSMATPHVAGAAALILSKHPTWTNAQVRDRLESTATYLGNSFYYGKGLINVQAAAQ
Procedure: (§1) The amidase activities of subtilisin and derivatives thereof were measured on the substrate succinyl-Ala-Ala-Pro-Phe-p-nitroanilide (sAAPF-pna) at 37° C. in 0.1M Tris-HCl, pH 8.0 and 10 mM CaCl2. Assays were initiated by mixing the enzyme, the substrate and the reaction buffer. The amount of released p-nitroaniline was measured spectrophotometrically at 410 nm as a function of time. KM and kcat values for hydrolysis of sAAPF-pna by the subtilisin variants were obtained by nonlinear regression of the data using the program Enzfitter (Biosoft).
(§2) For activity measurements in mixed buffer (containing DMF), a portion of the aqueous buffer was replaced by the percentage (w/v) of DMF indicated in Table II. Kinetic constants are reported in Table II for the wild-type enzyme and six variants with 3-10 amino acid substitutions in 20% and 40% DMF.
The effects of different amino acid substitutions at position 103 on amidase activity were investigated. The variants Q103E, Q103K, and Q103S were constructed by PCR site-directed mutagenesis as described in Example VIII. The amidase activities of these variants and the variant Q103R identified by random mutagenesis and screening for enhanced activity in the presence of DMF (Example IV) are compared in Table III. The reactions were carried out in 10% DMF according to the procedures outlined in Examples XI and XII.
The effects of the Q103R amino acid substitution on amidase activity were investigated for two substrates, succinyl-Ala-Ala-Pro-Phe-p-nitroanilide (negatively-charged succinyl group at the peptide N-terminus) and Ala-Ala-Pro-Phe-p-nitroanilide (positively charged N-terminus) in 10% DMF.

[2] = target: T2, Bacillus subtilis subtilisin E (subtilisin I168, aprA gene product), wild type, SEQ ID NO: 1 (Bacillus subtilis, UniProt P04189); assay: Transesterification of methyl ester to ethyl ester in organic solvents; format: biochemical; details: 1M ethanol, 32° C.
T2 construct: each contain 275 residues; made in house; host or cells: Bacillus subtilis DB428 (vector pKWC), secreted into the medium
Procedure: (§3) The activity of the D60N+Q103R+N218S (3M) subtilisin E triple variant was compared to that of the wild-type enzyme for the transesterification of N-acetyl-L-phenylalanine methyl ester to the ethyl ester in three organic solvents. The reactions were carried out in 2 mL volumes of the indicated solvent, containing 1 mg/mL of enzyme, 100 mM N-acetyl-L-phenylalanine methyl ester, 1M ethanol. The samples were incubated, with shaking, at 32° C., and the formation of the ethyl ester product was measured by capillary gas chromatography. Values of the kinetic constants kcat /KM are given in Table VII for the wild-type and 3M variant enzymes. In all three solvents, anhydrous hexane, hexane containing 0.1% water, and acetonitrile containing 0.1% water, the D60N+Q103R+N218S (3M) triple variant was considerably more efficient than the wild-type enzyme.

[3] = target: T3, Bacillus subtilis subtilisin E variant 3M (D60N + Q103R + N218S) (Bacillus subtilis, UniProt P04189, A256V/D166N/N324S/Q209R); assay: as above; format: biochemical; details: 1M ethanol, 32° C.
T3 construct: each contain 275 residues; made in house; host or cells: Bacillus subtilis DB428 (vector pKWC), secreted into the medium
T3 sequence (P04189 107-381 D166N/Q209R/A256V/N324S): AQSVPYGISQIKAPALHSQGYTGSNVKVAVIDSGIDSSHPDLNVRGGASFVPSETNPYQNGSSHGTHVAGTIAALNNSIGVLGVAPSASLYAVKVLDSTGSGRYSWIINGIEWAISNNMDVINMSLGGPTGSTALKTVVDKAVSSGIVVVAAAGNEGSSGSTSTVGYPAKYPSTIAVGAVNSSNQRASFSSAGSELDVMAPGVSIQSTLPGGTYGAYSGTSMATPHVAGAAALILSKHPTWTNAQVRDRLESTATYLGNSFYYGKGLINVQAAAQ
Procedure: as §3

[4] = substrate: C[C@H](NC(=O)CCC(=O)O)C(=O)N[C@@H](C)C(=O)N1CCC[C@H]1C(=O)N[C@@H](Cc1ccccc1)C(=O)Nc1ccc([N+](=O)[O-])cc1; assay: Amidase activity: hydrolysis of p-nitroanilide peptide substrates; format: biochemical, Bacillus subtilis; details: other: 0% DMF, 0.1M Tris-HCl, 10 mM CaCl2, pH 8, 37° C.
Procedure: as §1, §2

[5] = substrate: C[C@H](N)C(=O)N[C@@H](C)C(=O)N1CCC[C@H]1C(=O)N[C@@H](Cc1ccccc1)C(=O)Nc1ccc([N+](=O)[O-])cc1; assay: as above; format: biochemical, Bacillus subtilis; details: other: 10% DMF (Table IV), 0.1M Tris-HCl, 10 mM CaCl2, pH 8, 37° C.
[6] = substrate: C[C@H](NC(=O)CCC(=O)O)C(=O)N[C@@H](C)C(=O)N1CCC[C@H]1C(=O)N[C@@H](Cc1ccccc1)C(=O)Nc1ccc([N+](=O)[O-])cc1; assay: as above; format: biochemical, Bacillus subtilis; details: 0.1M Tris-HCl, 10 mM CaCl2, pH 8, 37° C.
[7] = substrate: C[C@H](NC(=O)CCC(=O)O)C(=O)N[C@@H](C)C(=O)N1CCC[C@H]1C(=O)N[C@@H](Cc1ccccc1)C(=O)Nc1ccc([N+](=O)[O-])cc1; assay: Amidase activity: hydrolysis of p-nitroanilide peptide substrate; format: biochemical, Bacillus subtilis; details: other: 0% DMF, 0.1M Tris-HCl, 10 mM CaCl2, pH 8, 37° C.
Procedure: as §1, §2

Molecule: C[C@H](N)C(=O)N[C@@H](C)C(=O)N1CCC[C@H]1C(=O)N[C@@H](Cc1ccccc1)C(=O)Nc1ccc([N+](=O)[O-])cc1 [AAPFpna, Ala-Ala-Pro-Phe-p-nitroanilide] (H-AAPF-pNA)
- Km ([1]; 10% DMF (Table IV)): ≥ 37000 µM
- kcat ([1]; 10% DMF (Table IV)): ≥ 2.6 s⁻¹
- kcat /KM ([1]; 10% DMF (Table IV)): 0.07 M^-1 s^-1 × 10^3

Molecule: COC(=O)[C@H](Cc1ccccc1)NC(C)=O [N-acetyl-L-phenylalanine methyl ester]
- kcat /KM ([2]; Ch3 CN (0.1% water)): 0.3 Min^-1 mg^-1 × 10^-3
- kcat /KM ([2]; hexane (0.1% water)): 5 Min^-1 mg^-1 × 10^-3
- kcat /KM ([2]; hexane (anhydrous)): 0.4 Min^-1 mg^-1 × 10^-3
- kcat /KM ([3]; Ch3 CN (0.1% water)): 3.1 Min^-1 mg^-1 × 10^-3
- kcat /KM ([3]; hexane (0.1% water)): 220 Min^-1 mg^-1 × 10^-3
- kcat /KM ([3]; hexane (anhydrous)): 17 Min^-1 mg^-1 × 10^-3

Molecule: C[C@H](NC(=O)CCC(=O)O)C(=O)N[C@@H](C)C(=O)N1CCC[C@H]1C(=O)N[C@@H](Cc1ccccc1)C(=O)Nc1ccc([N+](=O)[O-])cc1 [succinyl-Ala-Ala-Pro-Phe-p-nitroanilide] (Suc-AAPF-pNA)
- kcat /KM ([1]; 20% DMF): 6.8 M^-1 s^-1 × 10^-3

B1: Bacillus subtilis subtilisin E (subtilisin I168, aprA gene product), wild type, SEQ ID NO: 1 (Bacillus subtilis subsp. subtilis str. 168) (protein)
chain: AQSVPYGISQIKAPALHSQGYTGSNVKVAVIDSGIDSSHPDLNVRGGASFVPSETNPYQDGSSHGTHVAGTIAALNNSIGVLGVAPSASLYAVKVLDSTGSGQYSWIINGIEWAISNNMDVINMSLGGPTGSTALKTVVDKAVSSGIVVAAAAGNEGSSGSTSTVGYPAKYPSTIAVGAVNSSNQRASFSSAGSELDVMAPGVSIQSTLPGGTYGAYNGTSMATPHVAGAAALILSKHPTWTNAQVRDRLESTATYLGNSFYYGKGLINVQAAAQ
notes: each contain 275 residues; made in house; host or cells: Bacillus subtilis DB428 (vector pKWC), secreted into the medium
- Km [4]: 560 µM
- kcat [4]: 21 s⁻¹
- kcat/Km [4]: 38 M^-1 s^-1 × 10^3
- Km [5]: 7800 µM
- kcat [5]: 0.83 s⁻¹
- kcat/Km [5]: 0.11 M^-1 s^-1 × 10^3
- Km ([6]; other: 10% DMF (Table III)): 2900 µM
- kcat ([6]; other: 10% DMF (Table III)): 20 s⁻¹
- kcat/Km ([6]; other: 10% DMF (Table III)): 7.0 M^-1 s^-1 × 10^3
- Km ([6]; other: 10% DMF (Table IV)): 510 µM
- kcat ([6]; other: 10% DMF (Table IV)): 21 s⁻¹
- kcat/Km ([6]; other: 10% DMF (Table IV)): 41 M^-1 s^-1 × 10^3

B2: Bacillus subtilis subtilisin E variant 3M (D60N + Q103R + N218S) (Bacillus subtilis subsp. subtilis str. 168; A256V/D166N/N324S/Q209R) (protein)
chain: AQSVPYGISQIKAPALHSQGYTGSNVKVAVIDSGIDSSHPDLNVRGGASFVPSETNPYQNGSSHGTHVAGTIAALNNSIGVLGVAPSASLYAVKVLDSTGSGRYSWIINGIEWAISNNMDVINMSLGGPTGSTALKTVVDKAVSSGIVVVAAAGNEGSSGSTSTVGYPAKYPSTIAVGAVNSSNQRASFSSAGSELDVMAPGVSIQSTLPGGTYGAYSGTSMATPHVAGAAALILSKHPTWTNAQVRDRLESTATYLGNSFYYGKGLINVQAAAQ
notes: as for B1
- Km [7]: 110 µM
- kcat [7]: 40 s⁻¹
- kcat/Km [7]: 360 M^-1 s^-1 × 10^3
